Measurements published in paper PMC5624926.

Assay: recombinant expression of point mutants
Settings: glycan lost; control: wild-type CD22 20-330

With CD22 (Siglec-2): N101A the expression_or_secretion was “decreases”.
